What follows are sequences tested on Escherichia coli TOP10 (assay: shrunken log2 fold change of peptide-encoding DNA abundance (4.5 h post-induction vs induction); higher = less antimicrobial activity (less host growth inhibition)). Settings: time post-induction: 4.5 h; library: site-saturation at positions 5, 18, 19, 20.
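Also: peptides expressed intracellularly from a pBAD plasmid library in pooled LB shake-flask culture, induced with 0.3% L-arabinose, DNA abundance read by NGS, three biological replicates, DESeq2 with apeglm shrinkage.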

Row | Sequence | shrunken log2 fold change
1 | RRIRLRPPRLPRPRPRPNDRPRP | -0.422
2 | RRIRGRPPRLPRPRPRPRKYPRP | 0.0397
3 | RRIRWRPPRLPRPRPRPKMCPRP | -0.0087
4 | RRIRRRPPRLPRPRPRPEIFPRP | 0.215
5 | RRIRQRPPRLPRPRPRPQHFPRP | 0.14
6 | RRIRYRPPRLPRPRPRPYMYPRP | -0.23
7 | RRIRNRPPRLPRPRPRPQQDPRP | -0.38
8 | RRIRMRPPRLPRPRPRPSLGPRP | 0.193
9 | RRIRARPPRLPRPRPRPKSCPRP | 0.129
10 | RRIRCRPPRLPRPRPRPGSFPRP | -0.22
11 | RRIRSRPPRLPRPRPRPEWLPRP | 0.625
12 | RRIRARPPRLPRPRPRPWEAPRP | 0.221
13 | RRIRWRPPRLPRPRPRPWKDPRP | -0.000687
14 | RRIRNRPPRLPRPRPRPPYKPRP | -0.311
15 | RRIRARPPRLPRPRPRPFIHPRP | -0.45
16 | RRIRTRPPRLPRPRPRPGKGPRP | 0.0141
17 | RRIRMRPPRLPRPRPRPMMMPRP | -0.0717
18 | RRIRYRPPRLPRPRPRPGYRPRP | -0.46
19 | RRIRTRPPRLPRPRPRPMMWPRP | 0.00735
20 | RRIRFRPPRLPRPRPRPMRCPRP | 0.0196
21 | RRIRNRPPRLPRPRPRPGTVPRP | -0.31
22 | RRIRKRPPRLPRPRPRPAAMPRP | 0.707
23 | RRIRNRPPRLPRPRPRPYKMPRP | -0.0115
24 | RRIRKRPPRLPRPRPRPTKFPRP | 0.663
25 | RRIRQRPPRLPRPRPRPVYCPRP | -0.155

Row | Sequence | shrunken log2 fold change
26 | RRIRMRPPRLPRPRPRPFTCPRP | -0.173
27 | RRIRIRPPRLPRPRPRPNIVPRP | -0.665
28 | RRIRIRPPRLPRPRPRPASSPRP | 0.093
29 | RRIRFRPPRLPRPRPRPWSLPRP | -0.529
30 | RRIRYRPPRLPRPRPRPIVNPRP | -0.558
31 | RRIRCRPPRLPRPRPRPNDKPRP | -0.46
32 | RRIRWRPPRLPRPRPRPEEGPRP | -0.00968
33 | RRIRIRPPRLPRPRPRPEQTPRP | 0.0649
34 | RRIRLRPPRLPRPRPRPILHPRP | -0.231
35 | RRIRKRPPRLPRPRPRPPQYPRP | 0.277
36 | RRIRYRPPRLPRPRPRPPYWPRP | -0.22
37 | RRIRIRPPRLPRPRPRPGYDPRP | -0.576
38 | RRIRLRPPRLPRPRPRPDFHPRP | -0.206
39 | RRIRRRPPRLPRPRPRPLWGPRP | 0.0229
40 | RRIRWRPPRLPRPRPRPWMFPRP | 0.00732
41 | RRIRIRPPRLPRPRPRPTSIPRP | -0.182
42 | RRIRFRPPRLPRPRPRPTCGPRP | 0.00559
43 | RRIRPRPPRLPRPRPRPGAWPRP | 0.132
44 | RRIRARPPRLPRPRPRPVYQPRP | -0.068
45 | RRIRVRPPRLPRPRPRPEYHPRP | -0.287
46 | RRIRPRPPRLPRPRPRPATLPRP | 0.223
47 | RRIRVRPPRLPRPRPRPRVFPRP | 0.218
48 | RRIRDRPPRLPRPRPRPKTIPRP | -0.00641
49 | RRIRKRPPRLPRPRPRPQHKPRP | 0.196
50 | RRIRGRPPRLPRPRPRPLSWPRP | 0.781

Row | Sequence | shrunken log2 fold change
51 | RRIRLRPPRLPRPRPRPFELPRP | -0.519
52 | RRIRYRPPRLPRPRPRPRPTPRP | 0.363
53 | RRIRHRPPRLPRPRPRPSAKPRP | -0.324
54 | RRIRERPPRLPRPRPRPDFQPRP | -0.37
55 | RRIRFRPPRLPRPRPRPQAPPRP | 0.0778
56 | RRIRMRPPRLPRPRPRPVCWPRP | 0.833
57 | RRIRARPPRLPRPRPRPQTSPRP | 0.00801
58 | RRIRDRPPRLPRPRPRPFYFPRP | -0.262
59 | RRIRWRPPRLPRPRPRPLKCPRP | 0.0309
60 | RRIRWRPPRLPRPRPRPRKFPRP | 0.295
61 | RRIRDRPPRLPRPRPRPIYGPRP | -0.0774
62 | RRIRKRPPRLPRPRPRPCCFPRP | 0.112
63 | RRIRFRPPRLPRPRPRPFAIPRP | -0.109
64 | RRIRARPPRLPRPRPRPFTQPRP | -0.0692
65 | RRIRARPPRLPRPRPRPAFQPRP | 0.174
66 | RRIRERPPRLPRPRPRPYKHPRP | -0.684
67 | RRIRCRPPRLPRPRPRPTCSPRP | -0.157
68 | RRIRVRPPRLPRPRPRPYYVPRP | -1.97
69 | RRIRARPPRLPRPRPRPNPNPRP | 0.187
70 | RRIRPRPPRLPRPRPRPFIKPRP | -0.926
71 | RRIRPRPPRLPRPRPRPLAKPRP | 0.261
72 | RRIRFRPPRLPRPRPRPQFSPRP | -0.401
73 | RRIRARPPRLPRPRPRPLPTPRP | 0.771
74 | RRIRWRPPRLPRPRPRPDSAPRP | 0.139
75 | RRIRSRPPRLPRPRPRPPVRPRP | 0.337

Row | Sequence | shrunken log2 fold change
76 | RRIRGRPPRLPRPRPRPDCGPRP | 0.879
77 | RRIRPRPPRLPRPRPRPGALPRP | 0.243
78 | RRIRWRPPRLPRPRPRPTWKPRP | 0.261
79 | RRIRRRPPRLPRPRPRPEVFPRP | 0.0496
80 | RRIRARPPRLPRPRPRPNRTPRP | 0.197
81 | RRIRIRPPRLPRPRPRPMALPRP | -0.581
82 | RRIRNRPPRLPRPRPRPCNEPRP | -0.0138
83 | RRIRNRPPRLPRPRPRPITFPRP | -0.0674
84 | RRIRVRPPRLPRPRPRPGANPRP | 0.222
85 | RRIRSRPPRLPRPRPRPRCEPRP | 0.152
86 | RRIRTRPPRLPRPRPRPRKKPRP | 0.173
87 | RRIRLRPPRLPRPRPRPSGMPRP | -0.204
88 | RRIRLRPPRLPRPRPRPCFFPRP | -0.13
89 | RRIRSRPPRLPRPRPRPVECPRP | -0.0425
90 | RRIRFRPPRLPRPRPRPCWLPRP | -0.165
91 | RRIRWRPPRLPRPRPRPRYYPRP | -0.0581
92 | RRIRTRPPRLPRPRPRPQDEPRP | -0.152
93 | RRIRNRPPRLPRPRPRPYSDPRP | -0.031
94 | RRIRPRPPRLPRPRPRPYMQPRP | -0.681
95 | RRIRRRPPRLPRPRPRPYIGPRP | -0.399
96 | RRIRFRPPRLPRPRPRPRKWPRP | 0.498
97 | RRIRVRPPRLPRPRPRPANEPRP | -0.174
98 | RRIRGRPPRLPRPRPRPYSGPRP | -0.0221
99 | RRIRCRPPRLPRPRPRPITEPRP | -0.206
100 | RRIRFRPPRLPRPRPRPNFYPRP | -0.212

Row | Sequence | shrunken log2 fold change
101 | RRIRARPPRLPRPRPRPIPGPRP | 0.0653
102 | RRIRCRPPRLPRPRPRPSTWPRP | -0.0554
103 | RRIRFRPPRLPRPRPRPEHEPRP | 0.0369
104 | RRIRRRPPRLPRPRPRPFHVPRP | -0.00804
105 | RRIRTRPPRLPRPRPRPMLRPRP | 0.0141
106 | RRIRVRPPRLPRPRPRPSPRPRP | 0.415
107 | RRIRERPPRLPRPRPRPIHFPRP | -0.00865
108 | RRIRKRPPRLPRPRPRPILCPRP | 0.00753
109 | RRIRMRPPRLPRPRPRPAMNPRP | -0.00221
110 | RRIRTRPPRLPRPRPRPCLIPRP | -0.0324
111 | RRIRPRPPRLPRPRPRPTQAPRP | 0.0364
112 | RRIRARPPRLPRPRPRPCECPRP | 0.633
113 | RRIRNRPPRLPRPRPRPSYPPRP | 0.0469
114 | RRIRWRPPRLPRPRPRPKMIPRP | -0.22
115 | RRIRCRPPRLPRPRPRPRVKPRP | 0.196
116 | RRIRTRPPRLPRPRPRPRSAPRP | 0.0929
117 | RRIRWRPPRLPRPRPRPFLMPRP | -0.115
118 | RRIRVRPPRLPRPRPRPDRIPRP | -0.135
119 | RRIRWRPPRLPRPRPRPSECPRP | 0.0183
120 | RRIRKRPPRLPRPRPRPMERPRP | -0.024
121 | RRIRERPPRLPRPRPRPYNFPRP | -0.254
122 | RRIRRRPPRLPRPRPRPPKAPRP | -0.00754
123 | RRIRDRPPRLPRPRPRPTRYPRP | 0.317
124 | RRIRTRPPRLPRPRPRPVVVPRP | 0.0543
125 | RRIRGRPPRLPRPRPRPWCDPRP | 0.0715

Row | Sequence | shrunken log2 fold change
126 | RRIRNRPPRLPRPRPRPGKDPRP | -0.0565
127 | RRIRRRPPRLPRPRPRPTCTPRP | 0.165
128 | RRIRWRPPRLPRPRPRPQPSPRP | 0.287
129 | RRIRIRPPRLPRPRPRPIVEPRP | 0.0786
130 | RRIRVRPPRLPRPRPRPCWEPRP | -0.0578
131 | RRIRIRPPRLPRPRPRPFKAPRP | -0.431
132 | RRIRGRPPRLPRPRPRPVVDPRP | 0.873
133 | RRIRMRPPRLPRPRPRPVNCPRP | 0.181
134 | RRIRRRPPRLPRPRPRPLQGPRP | 0.0475
135 | RRIRARPPRLPRPRPRPILGPRP | 0.0597
136 | RRIRERPPRLPRPRPRPSLMPRP | -0.459
137 | RRIRKRPPRLPRPRPRPHAEPRP | 0.126
138 | RRIRNRPPRLPRPRPRPFWPPRP | 0.226
139 | RRIRMRPPRLPRPRPRPANVPRP | -0.0273
140 | RRIRPRPPRLPRPRPRPQRDPRP | 0.116
141 | RRIRTRPPRLPRPRPRPKAFPRP | -0.149
142 | RRIRDRPPRLPRPRPRPDVNPRP | 0.209
143 | RRIRMRPPRLPRPRPRPRFWPRP | 0.522
144 | RRIRWRPPRLPRPRPRPKWGPRP | 0.463
145 | RRIRCRPPRLPRPRPRPMRPPRP | 0.214
146 | RRIRRRPPRLPRPRPRPPVCPRP | 0.592
147 | RRIRYRPPRLPRPRPRPEYTPRP | -0.542
148 | RRIRHRPPRLPRPRPRPYSPPRP | -0.0769
149 | RRIRSRPPRLPRPRPRPMFTPRP | -0.374
150 | RRIRPRPPRLPRPRPRPAEDPRP | -0.114

From the supplement of paper PMC9112550, “Optimization of the antimicrobial peptide Bac7 by deep mutational scanning” (BMC Biology, 2022)
